The values below come from patent US20100143942A1, “METHOD OF DETECTION” (LEIDEN UNIVERSITY, priority 2006, published 2010).

Where two headings read alike, the source gives them in different places.

One experiment deals with T1, Ty (Streptomyces antibioticus, UniProt P07524).
T1 construct: The S.a; Ty is a monomeric protein with a molecular mass of ˜30 kDa
The experiment can be described thus: Dye emission switching ratio (Fred/Foxy) of N-terminally labelled Ty. The settings on record: dye attached to Ty; excitation at 280 nm; Trp line = native protein. The text has this: (§1) To illustrate the present invention two type-3 copper proteins have been selected: Hc from the arthropod Carcinus aestuarii (Mediterranean crab) and Ty from the soil bacterium Streptomyces antibioticus. The C.a. Hc consists of a mixture of hexamers and dodecamers, which are self-assembled from three different types of subunits. The S.a. Ty is a monomeric protein with a molecular mass of ˜30 kDa. The structure of Ty from S. castaneoglobisporus has recently been solved. S.a. Ty has 91% sequence similarity (82% indentity) with S.c. Ty and can be easily modelled on the S.c. structure. […] Dissociation can be achieved by incubating the Hc at high pH and in the absence of divalent metal ions. Both conditions were met in our experiments and we will assume, therefore, that the Hc used in this study was present in the form of monomers. The data on O2 binding (vide infra) confirms this assumption.
Both Hc and Ty were labelled at their N-terminus with each of the five dyes. […] The peak around 330 nm is a second-order artefact. In a solution containing dye and protein separately (not linked) this peak (280 nm) was missing. […]
In all cases, an increase in label emission was observed after deoxygenating the sample (FIG. 4A). […] The Cy3 fluorescence is specific for the labelled protein, while the Trp emission derives mainly (>95%) from unlabelled Hc. […]

The conditions of experiment [1]: literature [15]; read-out: literature Kd (iodide); cited from earlier work.
For experiment [2] the following is noted: literature [14]; read-out: literature dissociation constant (O2); cited from earlier work.
The conditions of experiment [3]: literature [12], [13]; cited from earlier work.
A short description of experiment [4]: O2 binding curve of labelled Ty; [O2] calculated from Hc-Atto390 fluorescence in the same sample during deoxygenation. The settings on record: label fluorescence vs [O2] determined from Hc-Atto390; read-out: Kd (O2 binding curve fitted to Hill equation). Also noted: species or system Streptomyces antibioticus.
Description: as §1, with “Both conditions were met in our experiments and we will assume, therefore, that the Hc used in this study was present in the form of monomers. The data on O2 binding (vide infra) confirms this assumption.” left out
The fact that the described method works for labels showing widely different emission wavelengths opens the possibility to observe two or more constructs in the same sample using a single excitation wavelength. […] The circles refer to the oxygen concentration (right scale) as calculated from the fluorescence of the Hc-Atto390. The left scale refers to the Ty-Atto655 fluorescence. […]
The [O2] at each time-point in the trace was determined using the response of Hc-Atto390 fluorescence with Eq. 1 and the oxygen dissociation constant and the Hill coefficient determined in an independent O2 titration (FIG. 6A). The Ty-Atto655 fluorescence was then plotted as a function of the determined [O2] at each time-point (FIG. 6B). […]

A short description of experiment [5]: Titration of a mixture of Hc-Alexa350 and Ty-Cy5 with iodide in air-saturated solution, emission upon excitation at 280 nm. The class given is binding. The settings on record: fitted to Eq. 1, read-out: apparent Kd (iodide). The protocol:
The specificity of the method is illustrated by the data presented in FIG. 7, which show a titration of a mixture of Hc-Alexa350 and Ty-Cy5 with iodide in an air-saturated solution. […] Hc. […] The small fluorescence decrease of the latter can be ascribed to the aspecific collisional quenching of the label and/or the Trp fluorescence by iodide. […] The difference between the experimental Kd and the literature value of 3.0±0.3 mM [15] may be related to its dependence on the [O2] in the sample, which may have varied between the two experiments.

T1 sequence (P07524 whole entry): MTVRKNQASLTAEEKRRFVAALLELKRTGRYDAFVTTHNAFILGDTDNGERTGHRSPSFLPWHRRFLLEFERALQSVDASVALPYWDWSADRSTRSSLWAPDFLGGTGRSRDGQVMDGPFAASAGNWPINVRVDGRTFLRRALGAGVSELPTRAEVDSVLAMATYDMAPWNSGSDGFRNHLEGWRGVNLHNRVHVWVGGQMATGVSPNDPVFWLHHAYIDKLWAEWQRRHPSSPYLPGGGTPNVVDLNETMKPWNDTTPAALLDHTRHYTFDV

For `Cc1cc(=O)oc2cc3c(cc12)C(C)CC(C)(C)N3CCCC(=O)O` (stereo not shown) [Atto390], at Ty, the “SR Tyr (switching ratio Fred/Foxy)” value turned out to be 2.2.

For `CCN1C(=CC=CC2=[N+](CCCCCC(=O)O)c3ccc(S(=O)(=O)O)cc3C2(C)C)C(C)(C)c2cc(S(=O)(=O)[O-])ccc21` [Cy3], at Ty, the “SR Tyr (switching ratio Fred/Foxy)” value was 2.8.

B1: Ty: Ty from the soil bacterium Streptomyces antibioticus, monomeric type-3 copper protein of ~30 kDa (protein, UniProt P07524 2-273, looked up)
Tyrosinase: TVRKNQASLTAEEKRRFVAALLELKRTGRYDAFVTTHNAFILGDTDNGERTGHRSPSFLPWHRRFLLEFERALQSVDASVALPYWDWSADRSTRSSLWAPDFLGGTGRSRDGQVMDGPFAASAGNWPINVRVDGRTFLRRALGAGVSELPTRAEVDSVLAMATYDMAPWNSGSDGFRNHLEGWRGVNLHNRVHVWVGGQMATGVSPNDPVFWLHHAYIDKLWAEWQRRHPSSPYLPGGGTPNVVDLNETMKPWNDTTPAALLDHTRHYTFDV
Consider B1, for which the Kd in experiment [1] was 3000 ± 300 µM; in experiment [2], 16 µM. Further, in experiment [3], the O2 dissociation rate was around 300 s⁻¹.

B2: Ty-Cy5: Streptomyces antibioticus tyrosinase labelled at its N-terminus with the dye Cy5 (conjugate, UniProt P07524 2-273, looked up)
Tyrosinase: TVRKNQASLTAEEKRRFVAALLELKRTGRYDAFVTTHNAFILGDTDNGERTGHRSPSFLPWHRRFLLEFERALQSVDASVALPYWDWSADRSTRSSLWAPDFLGGTGRSRDGQVMDGPFAASAGNWPINVRVDGRTFLRRALGAGVSELPTRAEVDSVLAMATYDMAPWNSGSDGFRNHLEGWRGVNLHNRVHVWVGGQMATGVSPNDPVFWLHHAYIDKLWAEWQRRHPSSPYLPGGGTPNVVDLNETMKPWNDTTPAALLDHTRHYTFDV
modifications: N-terminal Cy5 label
For the molecule B2, the Kd in experiment [4] is 15 µM; in experiment [5] it was 4400 ± 300 µM.
